Target: T1, ovalbumin (OVA) (UniProt P01012 2-386)
T1 construct: also called model antigen ovalbumin
T1 sequence (looked up): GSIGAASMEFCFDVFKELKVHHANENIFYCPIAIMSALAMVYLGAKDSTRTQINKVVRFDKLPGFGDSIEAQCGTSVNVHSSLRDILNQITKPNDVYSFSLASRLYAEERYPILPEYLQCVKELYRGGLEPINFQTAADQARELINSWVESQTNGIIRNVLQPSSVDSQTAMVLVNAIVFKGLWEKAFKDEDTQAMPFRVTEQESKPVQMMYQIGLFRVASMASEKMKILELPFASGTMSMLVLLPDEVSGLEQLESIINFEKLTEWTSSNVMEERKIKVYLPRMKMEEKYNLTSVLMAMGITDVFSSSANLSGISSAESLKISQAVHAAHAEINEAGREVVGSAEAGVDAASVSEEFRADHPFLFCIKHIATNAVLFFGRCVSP
Assay: zeta potential (DLS, Zetasizer) of ovalbumin/MAP-AP mixtures at weight ratios 2, 1 and 0.5
Procedure: First, ovalbumin and the adhesive adjuvant protein (MAP-AP) were prepared at a concentration of 1 mg/mL each, and nanocomplexes were then prepared with ovalbumin and MAP-AP at weight ratios of 2, 1, and 0.5, respectively. Dynamic light scattering (DLS, Zetasizer, UK) was used to measure the surface charge of the samples. The concentration of each substance was maintained below 1 mg/mL, and all measurements were performed at room temperature.
As a result, the spontaneous formation of nanocomplexes by the negatively charged ovalbumin and adhesive adjuvant protein (MAP-AP) was confirmed through changes in surface charge. When the mass ratio of ovalbumin to MAP-AP reached 1 or higher, the adhesive adjuvant protein (MAP-AP) became saturated, and the mass ratio was ultimately set to 1.

B1: adhesive adjuvant protein (MAP-AP; MAP-based Adjuvant Protein) (other)
chain: MAKPSYPPTYKAKPSYPPTYKAKPSYPPTYKAKPSYPPTYKAKPSYPPTYKAKPSYPPTYKPWSSEEYKGGYYPGNTYHYHSGGSYHGSGYHGGYKGKYYGKAKKYYYKYKNSGKYKYLKKARKYHRKGYKKYYGGGSSAKPSYPPTYKAKPSYPPTYKAKPSYPPTYKAKPSYPPTYKAKPSYPPTYKAKPSYPPTYKLGGGGSAKFVAAWTLKAAA
notes: Recombinant fusion protein made in E. coli; also called MAP-based Adhesive adjuvant protein
- mass ratio of ovalbumin to MAP-AP at which MAP-AP is saturated: ≥ 1 mass ratio (ovalbumin:MAP-AP)

Source: patent US20260167681A1 (POSTECH RESEARCH AND BUSINESS DEVELOPMENT FOUNDATION, published 2026)
